Results from publication PMC7456325, “Diversity in the intrinsic apoptosis pathway of nematodes” (Communications Biology, 2020).

T1: T. suis A ΔC28 (Trichuris suis BCL-2-like protein A, C-terminal truncation) (Trichuris suis, labelled with the NHS RED NanoTemper labelling kit (MO-L001) for MST)
T1 chain: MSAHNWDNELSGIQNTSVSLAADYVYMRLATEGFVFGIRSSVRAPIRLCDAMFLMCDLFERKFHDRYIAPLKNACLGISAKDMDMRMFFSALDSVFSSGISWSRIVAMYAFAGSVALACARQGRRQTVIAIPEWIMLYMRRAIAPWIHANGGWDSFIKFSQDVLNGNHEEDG


Legend:
[1] = molecular target: T1, T. suis A ΔC28 (Trichuris suis …); assay: MST; Monolith NT.115; protein labelled with NHS RED, unlabelled synthetic peptide diluted in phosphate-buffered saline; 30 min incubation; 25 °C; 40% LED and 40% MST power; three independent experiments, single binding model; settings: both partners purified
[2] = molecular target: BCL-XLΔC24 (labelled with the NHS RED NanoTemper labelling kit (MO-L001) for MST); assay: as above; settings: both partners purified
Sequence of BCL-XLΔC24 (labelled with the NHS RED NanoTemper labelling kit (MO-L001) for MST) (chain, as listed by the source mutant): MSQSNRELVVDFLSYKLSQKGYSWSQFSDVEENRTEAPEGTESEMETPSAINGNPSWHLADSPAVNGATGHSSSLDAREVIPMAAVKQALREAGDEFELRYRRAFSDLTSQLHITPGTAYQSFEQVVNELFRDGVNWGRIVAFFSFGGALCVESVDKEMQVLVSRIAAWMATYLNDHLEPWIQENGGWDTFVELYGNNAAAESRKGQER

| Binder | Kd [1] [µM] | Kd [2] [µM] |
| --- | --- | --- |
| PILPEVNKTALCMRAMGEVFEDRYKT (BH3 domain of Trichuris suis BCL-2-like protein B (ID# BCL_257); also called T. suis B BH3 domain peptide; source: synthetic peptide (Mimotopes, Australia, >90% purity)) [T. suis protein B BH3 peptide] | > 50 |  |
| SVRAPIRLCDAMFLMCDLFERKFHDR (BH3 domain of Trichuris suis BCL-2-like protein A (ID# BCL_199); also called T. suis A BH3 domain peptide; source: synthetic peptide (Mimotopes, Australia, >90% purity)) [T. suis protein A BH3 peptide] | > 50 |  |
| PSSTMGQVGRQLAIIGDDINRRYDSE (BH3 domain of BAK; also called BAK BH3 domain; source: synthetic peptide (Mimotopes, Australia, >90% purity)) [BAK BH3 peptide] |  | 0.178 ± 0.034 |
